Target: F-actin (chicken) (UniProt P68139)
Experiment: co-sedimentation

Kd: 88 µM
Substance: supervillin headpiece L38K point mutant (domain or fragment)
